Reference: the RNAGym collection of RNA variant scans (doi:10.7554/elife.90254)

B1: LINE1-full (parent)
chain: UACGUAGGUGGUUUUCCCCUGAUAGUGCUAAGGGGGCCUGGAAGUUUGGACUGGGCAGAGCUCAACACAGCGUGGCAAAGUGGCUGUGGCUAGACUGCCUCUCUGGAUUCCUCGUCACUCAGCAGGGCAUCUCUGAGAGAAAUGCC

Variants of: B1
Assay: self-cleavage, relative activity (ratio to wild type); higher = more cleavage; in vitro, sequencing; the parent is a self-cleaving ribozyme
For A50G C63A, the self-cleavage was 0.02. A50U U102A showed a self-cleavage of 1.63. A50U U102C showed a self-cleavage of 1.17. In the case of G48U U52A, the self-cleavage is reported as 0.81. Work on U47C C95A yielded a self-cleavage of 0.09. In the case of A50U U143A, the self-cleavage is reported as 1.47. In the case of A50G A77U, the self-cleavage is reported as 0.73. Variant A50G A77G has a self-cleavage of 1.42. Work on U47G C68U yielded a self-cleavage of 0.06. Variant A50U U100A has a self-cleavage of 0.31. A50U U100C showed a self-cleavage of 0.81. In the case of G48A A78G, the self-cleavage is reported as 1.21. Work on A50U C120A yielded a self-cleavage of 1.46. Variant U47C C84A has a self-cleavage of 0.15. Work on A50G C145A yielded a self-cleavage of 1.05. For G49A U62C, the self-cleavage was 0.03. Work on U47C A94G yielded a self-cleavage of 0.51. For G48A A124U, the self-cleavage was 1.02. In the case of G48A A124G, the self-cleavage is reported as 0.92. U47C C61U showed a self-cleavage of 0.05. For U47A U81C, the self-cleavage was 1.57. With U47C G54A the self-cleavage was 0.59. For U47C G54U, the self-cleavage was 1.48. G49C U130C gave a self-cleavage of 1.67. With U47A U85C the self-cleavage was 0.12. For U47C A138G, the self-cleavage was 1.53. For A50G C128U, the self-cleavage was 0.36. U47C A142C gave a self-cleavage of 1.3. In the case of G49A A69G, the self-cleavage is reported as 0.36. With A50U U96A the self-cleavage was 0.03. A50U U96C showed a self-cleavage of 0.1. Variant A50U U96G has a self-cleavage of 0.3. A50U U119C gave a self-cleavage of 1.47. In the case of A50U U119A, the self-cleavage is reported as 0.83. In the case of A50U C111U, the self-cleavage is reported as 0.77. For A50U C63U, the self-cleavage was 0.2. Work on A50U C63A yielded a self-cleavage of 0. With U47C U87C the self-cleavage was 0.48. G48A U109A gave a self-cleavage of 2.18. Work on U47C A141G yielded a self-cleavage of 1.51. Work on U47G U73A yielded a self-cleavage of 1.18. G49A U108C gave a self-cleavage of 1.54. Variant U47C A57G has a self-cleavage of 1.54. For A50U U85C, the self-cleavage was 0.14. Variant U47C A79U has a self-cleavage of 1.76. G48A G55U gave a self-cleavage of 0.19. Work on A50U A77U yielded a self-cleavage of 0.83. With A50U A77G the self-cleavage was 0.43. For U47A U52C, the self-cleavage was 1.37. A50U U134C showed a self-cleavage of 0.98. In the case of A50U U134A, the self-cleavage is reported as 0.92. In the case of U47C U96A, the self-cleavage is reported as 0.1. G48A U102A gave a self-cleavage of 1.71. G48A U85A showed a self-cleavage of 0.05. In the case of G48A U85C, the self-cleavage is reported as 0.1. With U47C C120U the self-cleavage was 1.72. With G49U U62C the self-cleavage was 0.08. A50G C113A gave a self-cleavage of 0.35. U47G A141G gave a self-cleavage of 1.45. For U47A U104C, the self-cleavage was 1.54. With A50C U143C the self-cleavage was 0.82. U47C G86U gave a self-cleavage of 0.13. For U47C G86A, the self-cleavage was 0.06. Variant A50C U130C has a self-cleavage of 1.51. With A50G A92G the self-cleavage was 0.19. U47A G88U showed a self-cleavage of 0.03. Work on A50U G89A yielded a self-cleavage of 0.02. Variant U47C has a self-cleavage of 1.47. U47G gave a self-cleavage of 1.14. For U47C C76U, the self-cleavage was 1.77. U47C A69U gave a self-cleavage of 0.06. In the case of U47C A69C, the self-cleavage is reported as 0.07. U47C U104C showed a self-cleavage of 2.24. Work on U47C U104G yielded a self-cleavage of 1.2. With U47C U104A the self-cleavage was 1.23. In the case of U47C U134C, the self-cleavage is reported as 1.74. In the case of A50G U102G, the self-cleavage is reported as 0.51. In the case of G49U U81C, the self-cleavage is reported as 1.54. Variant G48U U119C has a self-cleavage of 1.95. In the case of U47A U87A, the self-cleavage is reported as 0.11. Variant A50G A79U has a self-cleavage of 1.09. In the case of G49A A50G, the self-cleavage is reported as 0.82. With A50U A124U the self-cleavage was 1.11. A50C U91C gave a self-cleavage of 0.48. U47C C51U showed a self-cleavage of 1.14. With A50G G122U the self-cleavage was 1.09. In the case of A50G G139U, the self-cleavage is reported as 0.37. G48A A50G gave a self-cleavage of 0.53. Variant U47C A136G has a self-cleavage of 0.99. In the case of U47C G55A, the self-cleavage is reported as 0.65. With U47C U119C the self-cleavage was 1.48. In the case of U47C G89U, the self-cleavage is reported as 0.04. For U47C A140G, the self-cleavage was 1.52. A50G U115C gave a self-cleavage of 1.42. Variant A50G U115A has a self-cleavage of 0.95. G48A U81C gave a self-cleavage of 1.14. Variant A50G C90G has a self-cleavage of 0.06. In the case of A50U A136U, the self-cleavage is reported as 1.21. With G49A G54A the self-cleavage was 0.18. For U47G C111U, the self-cleavage was 1.62. In the case of G48U U109A, the self-cleavage is reported as 1.42. In the case of U47A U100G, the self-cleavage is reported as 1.93. Variant U47G A64G has a self-cleavage of 0.23. U47G A57G showed a self-cleavage of 0.62. For U47C A129U, the self-cleavage was 1.74. Variant A50G A124U has a self-cleavage of 0.79. A50G A124G showed a self-cleavage of 0.51. For A50U U112A, the self-cleavage was 1.15. Variant G49A A64U has a self-cleavage of 0.33. With A50C A136C the self-cleavage was 2.04. Variant U47A U109C has a self-cleavage of 1.19. Work on A50G U130C yielded a self-cleavage of 1.05. Variant U47A G127U has a self-cleavage of 1.67. For A50U A59G, the self-cleavage was 0.04. U47G U109C gave a self-cleavage of 2.63. Variant U47G A69G has a self-cleavage of 0.67. A50U A69U gave a self-cleavage of 0.07. A50U U108G gave a self-cleavage of 1.11. G48U showed a self-cleavage of 0.94. G48C gave a self-cleavage of 1.01. In the case of G48A, the self-cleavage is reported as 1.28. Variant G48U U108C has a self-cleavage of 1.27. G48A U130C showed a self-cleavage of 1.53. Work on G49A A59G yielded a self-cleavage of 0.02. Work on U47A U62C yielded a self-cleavage of 0.06. U47A U62A showed a self-cleavage of 0.05. Work on A50G U119C yielded a self-cleavage of 1.11. A50U C66U showed a self-cleavage of 0.01. A50G G74A showed a self-cleavage of 0.48. Work on A50G U91C yielded a self-cleavage of 0.35. Work on A50U G54U yielded a self-cleavage of 0.66. With G48A A140U the self-cleavage was 1.28. Variant U47C A67G has a self-cleavage of 0.88. With U47C A67U the self-cleavage was 0.2. A50C U85C gave a self-cleavage of 0.06. A50C U85A gave a self-cleavage of 0.04. Variant A50G G53U has a self-cleavage of 0. In the case of A50G G53A, the self-cleavage is reported as 1.09. For G49U A78G, the self-cleavage was 0.91. For G48U U102C, the self-cleavage was 1.43. U47C U81A gave a self-cleavage of 2.45. Work on U47C U81G yielded a self-cleavage of 1.13. G48U A136G gave a self-cleavage of 1.19. A50C A124G showed a self-cleavage of 1.29. In the case of A50G U143A, the self-cleavage is reported as 1.7. With A50G U143C the self-cleavage was 0.95. Variant G49A C133G has a self-cleavage of 1.39. For A50U A140U, the self-cleavage was 0.92. With G48U A121G the self-cleavage was 0.99. Work on G49A A67G yielded a self-cleavage of 0.56. U47C G125U showed a self-cleavage of 1.39. G49A U52C showed a self-cleavage of 1.35. In the case of A50G A140G, the self-cleavage is reported as 0.94. Variant A50G A140U has a self-cleavage of 0.93. Work on U47C U85A yielded a self-cleavage of 0.13. In the case of U47C U85C, the self-cleavage is reported as 0.24. For A50U G80C, the self-cleavage was 0.82. In the case of A50G G89A, the self-cleavage is reported as 0.06. G48U U132C showed a self-cleavage of 1.12. In the case of A50C U132C, the self-cleavage is reported as 1.02. In the case of A50G A59G, the self-cleavage is reported as 0.26. A50G A59U showed a self-cleavage of 0.84. Work on A50G C61U yielded a self-cleavage of 0.05. For G48A A57G, the self-cleavage was 0.6. G48A U73A gave a self-cleavage of 1.36. For A50U G55A, the self-cleavage was 0.08. Variant U47C U102C has a self-cleavage of 1.9.
